Data set [1] deals with the molecule itself. The data set can be described thus: self-association of the dye-labelled peptide into a tetrameric bundle; STORM imaging of the rods. As to the method:
With these rigid-rod molecules, the local amino acid sequence along the rods is determined via computational design. With this specified sequence, robust bundle physical assembly, and subsequent covalent polymer formation, one can display desired functionality locally within the polymer chain. High-resolution fluorescence microscopy provides the tool for observation of rigid-rod polymers synthesized with fluorophores attached to specific lysine side chains. Rods with targeted lengths of ~50 nm were first assembled using the same parent peptides as described in FIG. 33 with the short rod termini consisting of bundles displaying thiol functionality (FIG. 33A, more description in Methods). The maleimide-terminated peptides used in the short rod syntheses were functionalized with a desired fluorescent dye (rhodamine; nitrobenzofurazan (NBD); see FIG. 35A). […] After short rod synthesis with desired dye incorporation, separate populations of short red rods and short green rods were mixed together along with individual bundles with maleimide termini and no dye (FIG. 33A and FIG. 35A) in order to link the short, dyed rods together into longer rigid-rod chains. […] The sub-optical wavelength resolution of the STORM technique (stochastic optical reconstruction microscopy) allows clear observation of the ~50 nm long, individual rod segments within final, longer rods. […]

Data set [2] concerns the molecule itself. Put plainly: self-association of the peptide into a homotetrameric coiled coil bundle; TEM, cryoTEM and SANS of the linked bundle chains. The method, then: Transmission Electron Microscopy (TEM): Carbon-coated 200 mesh copper grids (CF200-Cu, Electron Microscopy Sciences, Inc.) were freshly treated by glow discharge using a plasma cleaner (PDC-32G, Harrica Plasma, Inc.) at low level for 20 seconds. Then, 4 µL sample solution was dropped on the grid. After 1 min, the remaining liquid was blotted from the edge of the grid using filter paper. The grid was allowed to air-dry for 10 min before TEM observation on FEI TALOS™ F200C microscope. For negative staining, 6 µL aqueous solution of phosphotungstic acid (2 w/v %, pH 6) was applied to the dried grid and incubated for 15-30 seconds. Then the grid was blotted with filter paper. The stained grid was allowed to sit for 10 min before TEM observation.

*: point of attachment. TAMRA = 5(6)-carboxytetramethylrhodamine amide on Lys NZ; Butanoyl(4-maleimido) = O=C1C=CC(=O)N1CCCC(=O)*; NBD = O=[N+]([O-])c1ccc(*)c2nonc12

{Butanoyl(4-maleimido)}-DEKIKNMADQIKHMAWMIDRMAEK(NBD)IDREA-NH2 (not fully specified (residue 1), also called green dye peptide) [Peptide 3 (SEQ ID NO: 3, maleimide N-terminus, nitrobenzofurazan dye on a lysine side chain)]: the binding result in data set [1] is listed as “binds”.

B1: Peptide 2 (bundle-forming peptide with N-terminal cysteine, SEQ ID NO: 1) (peptide)
peptide: H-CDEEIRRMAEEIRQMAERIQQMAEQIQQEA-NH2
modifications: not fully specified
notes: Four copies associate non-covalently into an antiparallel homotetrameric coiled coil bundle; also called 4459a-C; thiol-containing peptide
Turning to B1, in data set [2], the binding result is “binds”.
For {Butanoyl(4-maleimido)}-DEKIKNMADQIKHMAWMIDRMAEK(TAMRA)IDREA-NH2 (not fully specified (residue 1), also called red dye peptide) [Peptide 4 (SEQ ID NO: 3, maleimide N-terminus, tetramethylrhodamine dye on a lysine side chain)], in data set [1], the binding result is reported as “binds”.

B2: Peptide 1 (maleimide-functionalized bundle-forming peptide, SEQ ID NO: 3) (peptide)
peptide: {Butanoyl(4-maleimido)}-DEKIKNMADQIKHMAWMIDRMAEKIDREA-NH2
modifications: not fully specified (residue 1)
notes: Four copies associate non-covalently into an antiparallel homotetrameric coiled coil bundle; also called P622-A6-1; maleimide-containing peptide
With B2, the binding result in data set [2] is listed as “binds”.

Values taken from patent US12545707 (UNIVERSITY OF DELAWARE, dated 2026).
